# Measurements taken from patent publication US8632989B1, “Mutant insulin degrading enzyme and methods of use” (University of Kentucky Research Foundation, priority 2011, dated 2014).
# Assays:
# [1] = Fluorescence measurements of TNP-ATP binding, wild type rIDE and distal site mutants; settings: hyperbolic one site binding fit, 20 °C
# Method: The fluorescence increase on binding of (2,4,6-trinitrophenyl)ATP (TNP-ATP) is plotted for the indicated IDE constructs as a function of ligand concentration. Data were fit to a hyperbolic one site binding mechanism.
# Fluorescence emission spectra of 10 μM TNP-ATP in […] Tris-HCl, pH7.4, was measured in the presence of 1.5 μM of each wild type IDE and the indicated IDE distal mutants. Fluorescence spectra were recorded with a λexc=403 nm on a Perkin-Elmer LS55 Luminescence Spectrometer.
# Fluorescence measurements of TNP-ATP binding were performed on a Perkin-Elmer LS55 Luminescence Spectrometer. Titrations were monitored at an excitation wavelength of 403 nm and emission wavelength of 547 nm. The temperature of the sample was maintained at 20±0.1° C. by circulating thermostatically controlled water through the cuvette holder. Assays were conducted in 200 μL reaction mixtures containing 50 mM Tris-HCl, pH, 7.4, 10 μM Abz-[…]-EDDnp (SEQ ID NO:3) as substrate, and 0.5 μg wild type rIDE, 2.3 μg rIDE-V3605, 2.0 μg rIDE-I3745 or 1.62 μg rIDEY609F and the indicated concentration of ATP. The fluorescence of TNP-ATP was subtracted from the total fluorescence of enzyme+TNP-ATP to yield specific fluorescence enhancement (ΔF).
# Saccharomyces cerevisiae = experiment: IDE activity assay in yeast, spot halo assay for a-factor production; format: cell-based; settings: spot halo assay on RC757 lawn
# Method: Panel A depicts immunoblot of yeast-expressed IDE and IDE^K898A,K899A,S901A. Equivalent percentage amounts of total cellular extracts from yeast containing an empty expression vector or plasmids encoding IDE or the IDE^K898A,K899A,S901A mutant were analyzed by SDS-PAGE and immunoblotting using an IDE-specific antibody. […] An excess of MATa yeast were mixed with decreasing numbers of MATa cells deficient for Axl1p and Step 23p that were transformed with either an empty expression vector or a vector encoding IDE or IDE^K898A,K899A,S901A as indicated. Mating, which leads to colony growth, is dependent on production of mature a-factor pheromone by plasmid-encoded IDE. […] Concentrated samples of a-factor recovered from yeast bearing the indicated expression vector were spotted at the indicated dilutions on a lawn of RC757 MATa cells, which undergo growth arrest upon exposure to a-factor pheromone. […]
# The assays take advantage of the ability of IDE, in lieu of the yeast M16 metallopeptidases Axl1p and Step 23p, to participate in the proteolytic maturation of yeast a-factor mating pheromone. […] Growth of diploid colonies, indicative of mating, was scored 3 days after incubation of plates at 30° C. […] Results of mating tests and halo assays were recorded by scanning plates with a Microtek flatbed scanner and importing digitized images into Photoshop and PowerPoint.
molecule,measurement,setting,value
"IDE: Native rat insulin degrading enzyme (SEQ ID NO:1), expressed as hexahistidine fusion protein in Sf9 insect cells (protein, listed as Rattus norvegicus, hexahistidine tag; wild-type Insulin Degrading Enzyme (IDE) from rat) MRNGLVWLLHPALPSTLHSILGARPPPVKRLCGFPKQIYSTMNNPAIQRIEDHIVKSPEDKREYRGLELANGIKVLLISDPTTDKSSAALDVHIGSLSDPPNIPGLSHFCEHMLFLGTKKYPKENEYSQFLSEHAGSSNAFTSGEHTNYYFDVSHEHLEGALDRFAQFFLCPLFDASCKDREVNAVDSEHEKNVMNDAWRLFQLEKATGNPKHPFSKFGTGNKYTLETRPNQEGIDVREELLKFHSTYYSSNLMAICVLGRESLDDLTNLVVKLFSEVENKNVPLPEFPEHPFQEEHLKQLYKIVPIKDIRNLYVTFPIPDLQQYYKSNPGHYLGHLIGHEGPGSLLSELKSKGWVNTLVGGQKEGARGFMFFIINVDLTEEGLLHVEDIILHMFQYIQKLRAEGPQEWVFQECKDLNAVAFRFKDKERPRGYTSKIAGKLHYYPLNGVLTAEYLLEEFRPDLIDMVLDKLRPENVRVAIVSKSFEGKTDRTEQWYGTQYKQEAIPEDVIQKWQNADLNGKFKLPTKNEFIPTNFEILALEKDATPYPALIKDTAMSKLWFKQDDKFFLPKACLNFEFFSPFAYVDPLHCNMAYLYLELLKDSLNEYAYAAELAGLSYDLQNTIYGMYLSVKGYNDKQPILLKKITEKMATFEIDKKRFEIIKEAYMRSLNNFRAEQPHQHAMYYLRLLMTEVAWTKDELKEALDDVTLPRLKAFIPQLLSRLHIEALLHGNITKQAALGVMQMVEDTLIEHAHTKPLLPSQLVRYREVQLPDRGWFVYQRRNEVHNNCGIEIYYQTDMQSTSENMFLELFCQIISEPCFNTLRTKEQLGYIVFSGPRRANGIQGLRFIIQSEKPPHYLESRVEAFLITMEKAIEDMTEEAFQKHIQALAIRRLDKPKKLSAECAKYWGEIISQQYNYDRDNIEVAYLKTLSKDDIIKFYKEMLAVDAPRRHKVSVHVLAREMDSCPVVGEFPSQNDINLSEAPPLPQPEVIHNMTEFKRGLPLFPLVKPHINFMAAKL",Kd,[1],1000 ± 100 nM
same,production of a-factor by yeast,Saccharomyces cerevisiae,greater production of a-factor
